Source: PMC7697860
Where two headings read alike, the source gives them in different places.

Key:
[1] = molecular target: GST-PfPV1 (wheat germ cell-free expression) (Plasmodium falciparum 3D7); assay: SPR; […] (amine coupling), […]; Biacore X100, single-cycle kinetics, 1:1; HBS-EP+ (10 mM HEPES pH 7.4, 150 mM NaCl, 3 mM EDTA, 0.05% P20)
[2] = molecular target: GST-PfPV1 (wheat germ cell-free expression) (Plasmodium falciparum 3D7); assay: as above; remark: listed apart in the source

| Substance | Kd [1] [nM] | koff [1] [s⁻¹] | kon [1] [M⁻¹ s⁻¹] | Kd [2] [nM] |
| --- | --- | --- | --- | --- |
| GST-HSP101 (natural protein) | 10.5 | 0.000914 | 87000 |  |
| GST-PTEX150 (natural protein) | 54.5 | 0.00204 | 37300 | 54.6 |
| GST-EXP2 (natural protein) | 110 | 0.000989 | 9030 |  |
